Consider 3 molecules from publication PMC4730206, “The solution configurations of inactive and activated DntR have implications for the sliding dimer mechanism of LysR transcription factors” (Scientific Reports, 2016).

The target of one test is T1, DntR (DntR-His6) (Burkholderia sp. DNT, UniProt Q7WT50).
T1 construct: full-length, C-terminal His6 tag (DntR-His6), recombinant, modelled to H303, homotetramer
T1 sequence (Q7WT50 1-301): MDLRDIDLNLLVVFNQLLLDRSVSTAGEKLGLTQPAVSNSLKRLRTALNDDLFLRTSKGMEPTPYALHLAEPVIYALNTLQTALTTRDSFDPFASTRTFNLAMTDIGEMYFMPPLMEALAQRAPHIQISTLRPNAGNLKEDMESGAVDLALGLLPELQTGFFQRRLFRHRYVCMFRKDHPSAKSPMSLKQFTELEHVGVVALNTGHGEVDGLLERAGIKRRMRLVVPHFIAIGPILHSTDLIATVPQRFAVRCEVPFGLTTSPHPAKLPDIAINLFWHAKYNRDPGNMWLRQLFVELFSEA
The test is described as follows: Thermofluor thermal stability assay. Format: binding. To be noted: 100 µM sodium salicylate; inducer; apo-protein reference Tm in the 2nd table, row 4. The text has this:
Thermofluor thermal stability assay on DntR (DntR-His6)
On the technique in general: In DSF a fluorescence change marks the thermal transition of the protein.

Test [1] has as its target DntR-His6 from Burkholderia sp. (wild type) (Burkholderia sp.) (UniProt Q7WT50). The test is described as follows: SAXS; static SAXS of apo-DntR pre-incubated with 100 μM sodium salicylate (holo-DntR); repeated as SEC-SAXS with 5 mM salicylate; rigid body modelling of a tetramer.
Test [2] shares this target. Nature of the test: crystal structure; apo-DntR crystals, hanging drops at 18 °C, 0.2 M sodium potassium tartrate, 0.1 M Tris-HCl pH 8.0, 5% PEG 6000; space group P6(5)22, two monomers in the asymmetric unit, tetramer from two symmetry-related dimers.
For test [3] the target is unchanged. The test is described as follows: SAXS; static SAXS without inducer, in 1 M NaCl, 2 mM MgSO4, 1 mM DTT, 17% glycerol, 25 mM NaH2PO4-NaOH pH 8.0; apo-DntR at 3, 1 and 0.5 mg/mL (repeated as SEC-SAXS on Superdex 200), H169T-DntR at 0.7 mg/mL; fits to tetramer models. A general note: SEC sorts molecules by how far they enter the pores of the column.
The target of test [4] is H169T-DntR-His6 (Burkholderia sp.) (UniProt Q7WT50). The test is described as above.
For test [5] the target is unchanged. Nature of the test: crystal structure; H169T-DntR crystals, 0.2 M sodium tartrate, 0.2 M potassium thiocyanate, 0.5 mM sodium salicylate, 0.1 M Tris pH 8.5, 20% PEG 8000; thiocyanate bound; space group P6(5)22, dimer in the asymmetric unit, tetramer from two symmetry-related dimers.

With `O=C(O)c1ccccc1O` [salicylate], the “Tm (^oC)” value on DntR (DntR-His6) stood at 51 °C.
In general, stoichiometry N refers to a count of units in the complex or per binding partner. With “DntR-His6 from Burkholderia sp. (wild type) (from UniProt Q7WT50 1-301) (natural protein)”, the stoichiometry N in test [1], in test [2] and in test [3] was 4 each time.
Regarding “H169T-DntR-His6 (from UniProt Q7WT50 1-301) (natural protein)”, the stoichiometry N in test [4] and in test [5] was 4 each time.
